Measurements as given in paper PMC4613674.

Biological target: MBP–Cas5–Cas7 complex (Methanothermobacter thermautotrophicus) (Methanothermobacter thermautotrophicus ΔH)
Experiment: pull-down; MBP–Cas5–Cas7 (20 μg) held on amylose resin, His6–Cas8′ (20 μg) added, final volume 500 μl, 2–4 h at 4°C; 20 mM Tris/HCl pH 8.0, 150 mM NaCl, 1 mM EDTA, 1% Tween; western blots with anti-His6 and anti-MBP; with or without pre-incubation of Cas5–Cas7 with crRNA1

percent of input bound: < 10%
Substance: N-terminal hexahistidine-tagged Mth Cas8′ (natural protein)
